Patent publication US20110002929A1 (published 2011)
Residue numbers refer to the chain shown, from its start.

B1: RANKL13hum5 (VHH)
VHH: EVQLVESGGGLVQPGGSLRLSCAASGFTFSSYPMGWFRQAPGKGREFVSSITGSGGSTYYADSVKGRFTISRDNAKNTLYLQMNSLRPEDTAVYYCAAYIRPDTYLSRDYRKYDYWGQGTLVTVSS
B2: RANKL13 (VHH)
VHH: B1 VHH with P14A, F27R, S30R, G44E, S49A, L79V, Y95S, L121Q
B3: RANKL13hum5_D62E (VHH)
VHH: B1 VHH with D62E

Target: T1, human RANK-L (human, UniProt O14788 140-317)
T1 chain: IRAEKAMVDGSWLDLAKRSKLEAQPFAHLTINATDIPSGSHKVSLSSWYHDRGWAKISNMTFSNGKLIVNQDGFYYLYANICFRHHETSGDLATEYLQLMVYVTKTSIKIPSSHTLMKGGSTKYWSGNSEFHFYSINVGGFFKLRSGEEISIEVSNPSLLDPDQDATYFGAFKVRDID
Experiment: AlphaScreen competition

Binder	IC50 [nM]
B1	0.167
B2	0.228
B3	0.156
